± gives the standard deviation of the averaged measurements.

The subject of this series is VchCAST RNA-guided transposition machinery (E. coli BL21(DE3) host, lacZ target). Briefly: relative integration efficiency (T-LR orientation) vs wild-type transposon end (log2 (normalized fold change)); transposon end mutated: right end (5 bp flank + 75 bp right end); higher = more efficient transposition. A digest of the protocol:
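Each barcoded pool, 1549 left-end or 1849 right-end transposon variants in a pUC57 mini-transposon donor, went into E. coli BL21(DE3) with a T7-driven effector plasmid (CRISPR array, tniQ-cas8-cas7-cas6, tnsA-tnsB-tnsC). Plates contained 0.1 mM IPTG and were held at 37°C for 18 h. Input plasmids and genomic integration junctions were PCR-amplified and read by Illumina sequencing, with two biological output replicates and four reference barcodes. Relative integration efficiency is the fold change of output over input barcode abundance, normalised to the reference barcodes and log-transformed.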
Turning to “ACATTTGTTGATACAACCATAAAATGATAATTACAACCATATATTGATATCTCTCACACCCATAAATTGATAATTACTCTGATCATAGTCAGACCAACATTGCTACGACCCGTATTCGCACCGACAC”, the “relative integration efficiency (log2)” value was -0.0249 ± 0.15.

On to “ACATGGGTTGATACAACCATAAAATGATAATTACACCCATAAATTGATAATTATCACACCCATAAATTGATATTGCCTCTGATCATAGTCAGACCAACATTGCTACGACCCGTATTCGCACCGACAC”, for which the “relative integration efficiency (log2)” value is -5.51 ± 0.64.

As for “ACATTTGTTGATACAACCATAAACGTCTAATTACACCCATAAATTGATAATTATCACACCCATAAATTGATATTGCCTCTGATCATAGTCAGACCAACATTGCTACGACCCGTATTCGCACCGACAC”, the “relative integration efficiency (log2)” value was -2.25 ± 0.11.

Turning to “ACATTTGTTGATACAACCATAAAATGATAATTACACCCATAAATTGATAATTATCACACCCCGCCCGGTCGCGGTAAGAGGATCATAGTCAGACCAACATTGCTACGACCCGTATTCGCACCGACAC”, the “relative integration efficiency (log2)” value came out at 2.47 ± 0.19.

For “ACATTTGTTGATAGTTGGTATTTTACTATTAATGTGGGTATTTAACTATTAATTCAGTGGGTATTTAACTATAACGCTCTGATCATAGTCAGACCAACATTGCTACGACCCGTATTCGCACCGACAC”, the “relative integration efficiency (log2)” value was < -10.

In the case of “ACATTTGTTGATACAACCATAAAATGATAATTACACCCATAAATTGATATTGCTCACAACCATATATTGATATCTCCTCTGATCATAGTCAGACCAACATTGCTACGACCCGTATTCGCACCGACAC”, the “relative integration efficiency (log2)” value was determined as 0.579 ± 0.21.

As to “ACATTTGTTGATACCACCATCAAATGATAATTCCACCCCTACATTGATAATTATCACACCCAATTTAACTATAACGCTCTGATCATAGTCAGACCAACATTGCTACGACCCGTATTCGCACCGACAC”, the “relative integration efficiency (log2)” value was -2.15 ± 0.19.

“ACATTTGTTGATACCACCATAAAATGGTAATTCCACCCATACATTGATAATTATCACACCCAATTTAACTATAACGCTCTGATCATAGTCAGACCAACATTGCTACGACCCGTATTCGCACCGACAC”: the “relative integration efficiency (log2)” value was 0.278 ± 0.23.

As to “ACATTTGTTGATACAACCATAAAATGATAATTACACCCATAAATTGATAATTATCACACCCATAAATTGATATTGCCTCTGATAACTTCGTATAAAGTATCCTATACGAAGTTATTCGCACCGACAC”, the “relative integration efficiency (log2)” value came to 0.85 ± 0.066.

Take “ACATTTGTTGATACAACCATAAAATGATACGGCCACCCATAAATTGATAATTATCACACCCATAAATTGATATTGCCTCTGATCATAGTCAGACCAACATTGCTACGACCCGTATTCGCACCGACAC”: the “relative integration efficiency (log2)” value is -0.393 ± 0.37.

For the sequence “ACATTTGTTGATACAACCATAAAATGATAATTACACCCATAAATTGATAATTATCACACCCATAAATTGATATTCGGACTGATCATAGTCAGACCAACATTGCTACGACCCGTATTCGCACCGACAC”, the “relative integration efficiency (log2)” value came out at 0.106 ± 0.13.

“ACATTTGTTGATACAACCATAAAATGATAATTACACCCATCCCGGTCGCCGGCGACACAAACGCCCGGTCGCGGTAAGAGGATCATAGTCAGACCAACATTGCTACGACCCGTATTCGCACCGACAC”: the “relative integration efficiency (log2)” value was 0.414 ± 0.23.

For the sequence “ACATTTGTTGATACAACCATAAAATGATAATTACCCCCATCAATTGATAATTATCCCACCCCATTTAACTATAACGCTCTGATCATAGTCAGACCAACATTGCTACGACCCGTATTCGCACCGACAC”, the “relative integration efficiency (log2)” value was determined as 0.417 ± 0.32.

Consider “ACATTTGTTGATACAACCATAAAACGATAATTACACCCATAAATGGATAATTATCACACCCAATTTAACTATAACGCTCTGATCATAGTCAGACCAACATTGCTACGACCCGTATTCGCACCGACAC”, for which the “relative integration efficiency (log2)” value worked out at 1.52 ± 0.035.

On to “ACATTTGTTGATACAACCAATAAATGATAATTACCCCCATAAATTGATAATTGTGACACCGAATTTAACTATAACGCTCTGATCATAGTCAGACCAACATTGCTACGACCCGTATTCGCACCGACAC”, for which the “relative integration efficiency (log2)” value is 1.59 ± 0.12.

As for “ACATTTGTCGATACAACCCTAAAATGATAATTACACCCATAAATTGATCATTATCACACCCAATTTAACTATAACGCTCTGATCATAGTCAGACCAACATTGCTACGACCCGTATTCGCACCGACAC”, the “relative integration efficiency (log2)” value came to 0.178 ± 0.16.

Regarding “ACATTTGTTGATACAACCATAAAATGATAATTAATAATTATTTATAATCAGCAACTTAACCACCCATAAATTGATAATTATCAACAAACGCCCGGTCGCGGTACTCTGATCATAGTCAGACCAACAT”, the “relative integration efficiency (log2)” value amounted to 0.501 ± 0.39.

Turning to “ACATTTGTTGATACCACCATCAAATGGTAATTACACCCATACATTGATAATTATCACACCCAATTTAACTATAACGCTCTGATCATAGTCAGACCAACATTGCTACGACCCGTATTCGCACCGACAC”, the “relative integration efficiency (log2)” value is -2.98 ± 0.51.

With “ACATTTGTTGATACAACCATAAGTTGATATTTTCAACCATAAGTTGATATTTTTCACACCCATAAATTGATATTGCCTCTGATCATAGTCAGACCAACATTGCTACGACCCGTATTCGCACCGACAC”, the “relative integration efficiency (log2)” value was 0.248 ± 0.18.

With “ACATTTGTGGATACAACCATAAAACGATAATTACACCCATAAATTGATCATTATCACACCCAATTTAACTATAACGCTCTGATCATAGTCAGACCAACATTGCTACGACCCGTATTCGCACCGACAC”, the “relative integration efficiency (log2)” value was 2.1 ± 0.088.

Take “ACATTTGTTGATACAACCATAAAATGATAATTACACCCATAAATTGATAATTATCACACCCATAAATTGATATTGCCTCTATGTACACTGATGAGTTATTACACCTCAAGTTCAATGGCACCGACAC”: the “relative integration efficiency (log2)” value was -0.281 ± 0.31.

Consider “ACATTTGTTGATACAACCATAAAATGATAATTACAAACATAAATTGATAATTATCACACCCATAAATTGATATTGCCTCTGATCATAGTCAGACCAACATTGCTACGACCCGTATTCGCACCGACAC”, for which the “relative integration efficiency (log2)” value was -0.426 ± 0.17.

Take “ACATTTGTTGATACACCCATAAATTGATAATTACAACCATAAGTTGATATTTTTCACAACCATATATTGATATCTCCTCTGATCATAGTCAGACCAACATTGCTACGACCCGTATTCGCACCGACAC”: the “relative integration efficiency (log2)” value was -0.393 ± 0.46.

As to “ACATTTGTTGATACAACCATAAAATGATAATTAATAATTATTTATAATCAGCACACCCATAAATTGATAATTATCAACAAACGCCCGGTCGCGGTACTCTGATCATAGTCAGACCAACATTGCTACG”, the “relative integration efficiency (log2)” value was 0.238 ± 0.52.

In the case of “ACATTTGTTGATACAACCATAAAATGATAATGCCACCCATAAATTGATAATGCTCACACCCATAAATTGATATTTACTCTGATCATAGTCAGACCAACATTGCTACGACCCGTATTCGCACCGACAC”, the “relative integration efficiency (log2)” value is -0.0326 ± 0.2.

These data come from the supplement of paper PMC10201428.
